Data as given in the Immune Epitope Database (IEDB).
pKd: −log10 of the molar value.

Key:
[1] = target: HLA-B*44:03; assay: IEDB peptide-MHC binding, purified MHC/competitive/radioactivity; filed as Kd, often an IC50 or EC50 that approximates it; ≥ and ≤ were set here for values at or beyond the usual limits of such assays
[2] = target: HLA-B*44:02; assay: as above
[3] = target: HLA-B*40:02; assay: as above
[4] = target: HLA-B*45:01; assay: as above
[5] = target: HLA-B*40:01; assay: as above
[6] = target: HLA-B*18:01; assay: as above
[7] = target: HLA-B*58:01; assay: as above; conditions: source organism: Dengue virus 3 Martinique/1243/1999
[8] = target: HLA-B*15:17; assay: IEDB peptide-MHC binding, purified MHC/direct/fluorescence; filed as Kd, often an IC50 or EC50 that approximates it; ≥ and ≤ were set here for values at or beyond the usual limits of such assays
[9] = target: HLA-B*57:01; assay: as above
[10] = target: HLA-B*08:01; assay: IEDB peptide-MHC binding, purified MHC/competitive/radioactivity; filed as Kd, often an IC50 or EC50 that approximates it; ≥ and ≤ were set here for values at or beyond the usual limits of such assays; conditions: source organism: Dengue virus 3 Martinique/1243/1999
[11] = target: HLA-A*02:17; assay: as above
[12] = target: HLA-A*02:06; assay: as above
[13] = target: HLA-A*02:01; assay: as above
[14] = target: HLA-B*35:01; assay: as above
[15] = target: HLA-B*53:01; assay: as above; conditions: source organism: Dengue virus 2 Jamaica/1409/1983
[16] = target: HLA-B*58:01; assay: IEDB peptide-MHC binding, purified MHC/direct/fluorescence; filed as Kd, often an IC50 or EC50 that approximates it; ≥ and ≤ were set here for values at or beyond the usual limits of such assays
[17] = target: HLA-A*30:02; assay: IEDB peptide-MHC binding, purified MHC/competitive/radioactivity; filed as Kd, often an IC50 or EC50 that approximates it; ≥ and ≤ were set here for values at or beyond the usual limits of such assays; conditions: source organism: Dengue virus 4 Philippines/H241/1956
[18] = target: HLA-B*48:01; assay: IEDB peptide-MHC binding, purified MHC/direct/fluorescence; filed as Kd, often an IC50 or EC50 that approximates it; ≥ and ≤ were set here for values at or beyond the usual limits of such assays; conditions: source organism: Brucella abortus 2308
[19] = target: HLA-A*02:03; assay: IEDB peptide-MHC binding, purified MHC/competitive/radioactivity; filed as Kd, often an IC50 or EC50 that approximates it; ≥ and ≤ were set here for values at or beyond the usual limits of such assays
[20] = target: HLA-A*32:01; assay: as above; conditions: source organism: Dengue virus 3 Martinique/1243/1999
[21] = target: HLA-A*68:01; assay: as above; conditions: source organism: Dengue virus 3 Sri Lanka/1266/2000
[22] = source organism: SARS coronavirus Tor2
[23] = source organism: Yellow fever virus
[24] = source organism: Dengue virus 3 China/80-2/1980
[25] = source organism: Dengue virus 3 Martinique/1243/1999
[26] = source organism: Dengue virus 2 Jamaica/1409/1983
[27] = source organism: Mammarenavirus machupoense
[28] = source organism: Camelpox virus M-96
[29] = source organism: Dengue virus 4 Philippines/H241/1956
[30] = source organism: Mammarenavirus lassaense
[31] = source organism: Mammarenavirus guanaritoense
[32] = source organism: Dengue virus 3 Singapore/8120/1995
[33] = source organism: Mammarenavirus choriomeningitidis
[34] = source organism: Marburg virus - Musoke, Kenya, 1980
[35] = source organism: Dengue virus 2 Thailand/NGS-C/1944
[36] = source organism: Vibrio parahaemolyticus
[37] = source organism: Dengue virus 1 Brazil/97-11/1997
[38] = source organism: Dengue virus 1 Singapore/S275/1990
[39] = source organism: Mammarenavirus juninense

## QEIQLLAAV
[1]; [22]
  pKd: 7.31
[2]; [22]
  pKd: 7.03
[3]; [22]
  pKd: 4.71
[4]; [22]
  pKd: 8.06
[5]; [22]
  pKd: 7.58
[6]; [22]
  pKd: 6.84

## VIASSGMLW
[7]
  pKd: 7.25

## LAVMGDAAW
[8]; [23]
  pKd: 7.57
[9]; [23]
  pKd: 7.45

## LLLMRTSWAL
[10]
  pKd: 8.83
[11]; [24]
  pKd: 7.82
[12]; [25]
  pKd: 7.88
[13]; [24]
  pKd: 8.26

## ALLLLVAHYA
[11]; [26]
  pKd: ≤ 4.15
[13]; [26]
  pKd: 5.88

## RPASAWTLY
[14]; [26]
  pKd: 7.08
[15]
  pKd: 7.06

## KEINLLSQT
[1]; [27]
  pKd: 4.84
[2]; [27]
  pKd: 4.77
[3]; [27]
  pKd: 7.51
[4]; [27]
  pKd: 5.17
[5]; [27]
  pKd: ≤ 4.47
[6]; [27]
  pKd: ≤ 4.11

## ISGSNIVIF
[16]; [28]
  pKd: 6.04
[8]; [28]
  pKd: 6.81
[9]; [28]
  pKd: ≤ 4.70

## YAGPFSQHNY
[14]; [29]
  pKd: 6.95
[17]
  pKd: 7.83

## REAYCQEFSL
[1]; [30]
  pKd: 5.55
[2]; [30]
  pKd: 5.97
[3]; [30]
  pKd: 8.87
[4]; [30]
  pKd: 5.81
[5]; [30]
  pKd: 5.01
[6]; [30]
  pKd: 4.95

## GQWGGDWAV
[18]
  pKd: 7.21

## FLDLPLPWA
[11]; [29]
  pKd: 6.97
[13]; [29]
  pKd: 7.98

## EEVVENPTI
[1]; [22]
  pKd: 6.11
[2]; [22]
  pKd: 5.34
[3]; [22]
  pKd: 5.31
[4]; [22]
  pKd: 5.91
[5]; [22]
  pKd: 5.56
[6]; [22]
  pKd: ≤ 4.34

## IDFLIMRNL
[1]; [31]
  pKd: 4.79
[2]; [31]
  pKd: 4.84
[3]; [31]
  pKd: 6.65
[4]; [31]
  pKd: 4.74
[5]; [31]
  pKd: 4.81
[6]; [31]
  pKd: 4.82

## TELEPPCRF
[1]; [22]
  pKd: 7.20
[2]; [22]
  pKd: 7.00
[3]; [22]
  pKd: 4.85
[4]; [22]
  pKd: 4.92
[5]; [22]
  pKd: ≤ 4.55
[6]; [22]
  pKd: 6.05

## SMINGVVKL
[19]; [25]
  pKd: 7.74
[20]
  pKd: 5.83
[11]; [24]
  pKd: 6.37

## FENKTTLPV
[1]; [22]
  pKd: 5.73
[2]; [22]
  pKd: 4.77
[3]; [22]
  pKd: 7.60
[4]; [22]
  pKd: 6.07
[5]; [22]
  pKd: 6.94
[6]; [22]
  pKd: 6.18

## FTNMEAQLVR
[14]; source organism: Dengue virus 3 Sri Lanka/1266/2000
  pKd: 4.93
[21]
  pKd: 7.10

## TLTAAVLLLV
[19]; [32]
  pKd: 8.24
[11]; [32]
  pKd: 6.66

## FEDQFLPFMS
[1]; [33]
  pKd: ≤ 4.57
[2]; [33]
  pKd: 4.84
[3]; [33]
  pKd: 6.51
[4]; [33]
  pKd: 5.46
[5]; [33]
  pKd: 5.41
[6]; [33]
  pKd: 5.62

## ATAVNQECW
[16]; [34]
  pKd: 7.29
[8]; [34]
  pKd: 8.39
[9]; [34]
  pKd: 6.91

## TLMAMDLGEL
[19]; source organism: Dengue virus 2 Peru/IQT2913/1996
  pKd: 8.08
[11]; [35]
  pKd: 6.56
[13]; [35]
  pKd: 7.84

## TVIPFYFVW
[16]; [36]
  pKd: 7.38
[8]; [36]
  pKd: 8.17
[9]; [36]
  pKd: 6.56

## SLSMTCIAV
[19]; [37]
  pKd: 6.91
[11]; [38]
  pKd: 7.31
[13]; [38]
  pKd: 7.87

## IILEFFLMV
[11]; [29]
  pKd: 6.74
[12]; [37]
  pKd: 8.75

## PDVLRSDVY
[1]; [39]
  pKd: ≤ 4.11
[2]; [39]
  pKd: ≤ 4.31
[3]; [39]
  pKd: ≤ 4.11
[4]; [39]
  pKd: ≤ 4.11
[5]; [39]
  pKd: ≤ 4.12
[6]; [39]
  pKd: 5.65
